Target: SARS-CoV-2 Wuhan spike receptor-binding domain (RBD), His-tagged (SARS-CoV-2) (UniProt P0DTC2)
Experiment: ELISA

Work on “WTL_3H, wild-type-like tri-helical ACE2 fragment (from UniProt Q9BYF1 18-805) (domain or fragment)” yielded an EC50 of 0.253 µM and a Kd of 0.192 µM.

From paper PMC11594380
